B1: 1D2 SDR mutant HY102T (antibody, IgG1, V domains shown)
VH: QVQLVQSGAEVKKPGASVKVSCEASGYTFTDKYLHWVRQAPGQGLEWMAWINPKSGGTFYAQNFKGRVTVTRDTSINTAYLELTSLRLDDTSTYYCARGRDTYDQGAADLWGQGTMVTVSS
VL: DIQLTQSPSSLSASVGDRVTITCRASQGINSVLAWYQQKPGKAPKLLLYAASKLESGVPSRFSGSGSGTDYTLTISSLQPEDFGTYYCQQYYSPVRTFGQGTKVEIKR
notes: also called X5 T
B2: 1D2 SDR mutant HY102V (antibody, IgG1, V domains shown)
VH: QVQLVQSGAEVKKPGASVKVSCEASGYTFTDKYLHWVRQAPGQGLEWMAWINPKSGGTFYAQNFKGRVTVTRDTSINTAYLELTSLRLDDTSTYYCARGRDVYDQGAADLWGQGTMVTVSS
VL: DIQLTQSPSSLSASVGDRVTITCRASQGINSVLAWYQQKPGKAPKLLLYAASKLESGVPSRFSGSGSGTDYTLTISSLQPEDFGTYYCQQYYSPVRTFGQGTKVEIKR
notes: also called X5 V
B3: 1D2 SDR mutant HY103F (antibody, IgG1, V domains shown)
VH: QVQLVQSGAEVKKPGASVKVSCEASGYTFTDKYLHWVRQAPGQGLEWMAWINPKSGGTFYAQNFKGRVTVTRDTSINTAYLELTSLRLDDTSTYYCARGRDYFDQGAADLWGQGTMVTVSS
VL: DIQLTQSPSSLSASVGDRVTITCRASQGINSVLAWYQQKPGKAPKLLLYAASKLESGVPSRFSGSGSGTDYTLTISSLQPEDFGTYYCQQYYSPVRTFGQGTKVEIKR
notes: also called X6 F
B4: 1D2 SDR mutant LV32E (antibody, IgG1, V domains shown)
VH: QVQLVQSGAEVKKPGASVKVSCEASGYTFTDKYLHWVRQAPGQGLEWMAWINPKSGGTFYAQNFKGRVTVTRDTSINTAYLELTSLRLDDTSTYYCARGRDYYDQGAADLWGQGTMVTVSS
VL: DIQLTQSPSSLSASVGDRVTITCRASQGINSELAWYQQKPGKAPKLLLYAASKLESGVPSRFSGSGSGTDYTLTISSLQPEDFGTYYCQQYYSPVRTFGQGTKVEIKR
notes: also called X8 E
B5: 1D2 SDR mutant HY103P (antibody, IgG1, V domains shown)
VH: QVQLVQSGAEVKKPGASVKVSCEASGYTFTDKYLHWVRQAPGQGLEWMAWINPKSGGTFYAQNFKGRVTVTRDTSINTAYLELTSLRLDDTSTYYCARGRDYPDQGAADLWGQGTMVTVSS
VL: DIQLTQSPSSLSASVGDRVTITCRASQGINSVLAWYQQKPGKAPKLLLYAASKLESGVPSRFSGSGSGTDYTLTISSLQPEDFGTYYCQQYYSPVRTFGQGTKVEIKR
notes: also called X6 P
B6: 1D2 SDR mutant LP94C (antibody, IgG1, V domains shown)
VH: QVQLVQSGAEVKKPGASVKVSCEASGYTFTDKYLHWVRQAPGQGLEWMAWINPKSGGTFYAQNFKGRVTVTRDTSINTAYLELTSLRLDDTSTYYCARGRDYYDQGAADLWGQGTMVTVSS
VL: DIQLTQSPSSLSASVGDRVTITCRASQGINSVLAWYQQKPGKAPKLLLYAASKLESGVPSRFSGSGSGTDYTLTISSLQPEDFGTYYCQQYYSCVRTFGQGTKVEIKR
notes: also called X9 C
B7: 1D2 SDR mutant HY103D (antibody, IgG1, V domains shown)
VH: QVQLVQSGAEVKKPGASVKVSCEASGYTFTDKYLHWVRQAPGQGLEWMAWINPKSGGTFYAQNFKGRVTVTRDTSINTAYLELTSLRLDDTSTYYCARGRDYDDQGAADLWGQGTMVTVSS
VL: DIQLTQSPSSLSASVGDRVTITCRASQGINSVLAWYQQKPGKAPKLLLYAASKLESGVPSRFSGSGSGTDYTLTISSLQPEDFGTYYCQQYYSPVRTFGQGTKVEIKR
notes: also called X6 D
B8: 1D2 SDR mutant HY103M (antibody, IgG1, V domains shown)
VH: QVQLVQSGAEVKKPGASVKVSCEASGYTFTDKYLHWVRQAPGQGLEWMAWINPKSGGTFYAQNFKGRVTVTRDTSINTAYLELTSLRLDDTSTYYCARGRDYMDQGAADLWGQGTMVTVSS
VL: DIQLTQSPSSLSASVGDRVTITCRASQGINSVLAWYQQKPGKAPKLLLYAASKLESGVPSRFSGSGSGTDYTLTISSLQPEDFGTYYCQQYYSPVRTFGQGTKVEIKR
notes: also called X6 M
B9: 1D2 SDR mutant HY103H (antibody, IgG1, V domains shown)
VH: QVQLVQSGAEVKKPGASVKVSCEASGYTFTDKYLHWVRQAPGQGLEWMAWINPKSGGTFYAQNFKGRVTVTRDTSINTAYLELTSLRLDDTSTYYCARGRDYHDQGAADLWGQGTMVTVSS
VL: DIQLTQSPSSLSASVGDRVTITCRASQGINSVLAWYQQKPGKAPKLLLYAASKLESGVPSRFSGSGSGTDYTLTISSLQPEDFGTYYCQQYYSPVRTFGQGTKVEIKR
notes: also called X6 H
B10: 1D2 SDR mutant HY103W (antibody, IgG1, V domains shown)
VH: QVQLVQSGAEVKKPGASVKVSCEASGYTFTDKYLHWVRQAPGQGLEWMAWINPKSGGTFYAQNFKGRVTVTRDTSINTAYLELTSLRLDDTSTYYCARGRDYWDQGAADLWGQGTMVTVSS
VL: DIQLTQSPSSLSASVGDRVTITCRASQGINSVLAWYQQKPGKAPKLLLYAASKLESGVPSRFSGSGSGTDYTLTISSLQPEDFGTYYCQQYYSPVRTFGQGTKVEIKR
notes: also called X6 W
B11: 1D2 SDR mutant HY103S (antibody, IgG1, V domains shown)
VH: QVQLVQSGAEVKKPGASVKVSCEASGYTFTDKYLHWVRQAPGQGLEWMAWINPKSGGTFYAQNFKGRVTVTRDTSINTAYLELTSLRLDDTSTYYCARGRDYSDQGAADLWGQGTMVTVSS
VL: DIQLTQSPSSLSASVGDRVTITCRASQGINSVLAWYQQKPGKAPKLLLYAASKLESGVPSRFSGSGSGTDYTLTISSLQPEDFGTYYCQQYYSPVRTFGQGTKVEIKR
notes: also called X6 S
B12: 1D2 SDR mutant HY103Q (antibody, IgG1, V domains shown)
VH: QVQLVQSGAEVKKPGASVKVSCEASGYTFTDKYLHWVRQAPGQGLEWMAWINPKSGGTFYAQNFKGRVTVTRDTSINTAYLELTSLRLDDTSTYYCARGRDYQDQGAADLWGQGTMVTVSS
VL: DIQLTQSPSSLSASVGDRVTITCRASQGINSVLAWYQQKPGKAPKLLLYAASKLESGVPSRFSGSGSGTDYTLTISSLQPEDFGTYYCQQYYSPVRTFGQGTKVEIKR
notes: also called X6 Q
B13: 1D2 SDR mutant HY103V (antibody, IgG1, V domains shown)
VH: QVQLVQSGAEVKKPGASVKVSCEASGYTFTDKYLHWVRQAPGQGLEWMAWINPKSGGTFYAQNFKGRVTVTRDTSINTAYLELTSLRLDDTSTYYCARGRDYVDQGAADLWGQGTMVTVSS
VL: DIQLTQSPSSLSASVGDRVTITCRASQGINSVLAWYQQKPGKAPKLLLYAASKLESGVPSRFSGSGSGTDYTLTISSLQPEDFGTYYCQQYYSPVRTFGQGTKVEIKR
notes: also called X6 V
B14: 1D2 SDR mutant HY103L (antibody, IgG1, V domains shown)
VH: QVQLVQSGAEVKKPGASVKVSCEASGYTFTDKYLHWVRQAPGQGLEWMAWINPKSGGTFYAQNFKGRVTVTRDTSINTAYLELTSLRLDDTSTYYCARGRDYLDQGAADLWGQGTMVTVSS
VL: DIQLTQSPSSLSASVGDRVTITCRASQGINSVLAWYQQKPGKAPKLLLYAASKLESGVPSRFSGSGSGTDYTLTISSLQPEDFGTYYCQQYYSPVRTFGQGTKVEIKR
notes: also called X6 L
B15: 1D2 SDR mutant HY103G (antibody, IgG1, V domains shown)
VH: QVQLVQSGAEVKKPGASVKVSCEASGYTFTDKYLHWVRQAPGQGLEWMAWINPKSGGTFYAQNFKGRVTVTRDTSINTAYLELTSLRLDDTSTYYCARGRDYGDQGAADLWGQGTMVTVSS
VL: DIQLTQSPSSLSASVGDRVTITCRASQGINSVLAWYQQKPGKAPKLLLYAASKLESGVPSRFSGSGSGTDYTLTISSLQPEDFGTYYCQQYYSPVRTFGQGTKVEIKR
notes: also called X6 G
B16: 1D2 SDR mutant HY102W (antibody, IgG1, V domains shown)
VH: QVQLVQSGAEVKKPGASVKVSCEASGYTFTDKYLHWVRQAPGQGLEWMAWINPKSGGTFYAQNFKGRVTVTRDTSINTAYLELTSLRLDDTSTYYCARGRDWYDQGAADLWGQGTMVTVSS
VL: DIQLTQSPSSLSASVGDRVTITCRASQGINSVLAWYQQKPGKAPKLLLYAASKLESGVPSRFSGSGSGTDYTLTISSLQPEDFGTYYCQQYYSPVRTFGQGTKVEIKR
notes: also called X5 W
B17: 1D2 SDR mutant HY103T (antibody, IgG1, V domains shown)
VH: QVQLVQSGAEVKKPGASVKVSCEASGYTFTDKYLHWVRQAPGQGLEWMAWINPKSGGTFYAQNFKGRVTVTRDTSINTAYLELTSLRLDDTSTYYCARGRDYTDQGAADLWGQGTMVTVSS
VL: DIQLTQSPSSLSASVGDRVTITCRASQGINSVLAWYQQKPGKAPKLLLYAASKLESGVPSRFSGSGSGTDYTLTISSLQPEDFGTYYCQQYYSPVRTFGQGTKVEIKR
notes: also called X6 T
B18: 1D2 SDR mutant HY103K (antibody, IgG1, V domains shown)
VH: QVQLVQSGAEVKKPGASVKVSCEASGYTFTDKYLHWVRQAPGQGLEWMAWINPKSGGTFYAQNFKGRVTVTRDTSINTAYLELTSLRLDDTSTYYCARGRDYKDQGAADLWGQGTMVTVSS
VL: DIQLTQSPSSLSASVGDRVTITCRASQGINSVLAWYQQKPGKAPKLLLYAASKLESGVPSRFSGSGSGTDYTLTISSLQPEDFGTYYCQQYYSPVRTFGQGTKVEIKR
notes: also called X6 K
B19: 1D2 SDR mutant HY103A (antibody, IgG1, V domains shown)
VH: QVQLVQSGAEVKKPGASVKVSCEASGYTFTDKYLHWVRQAPGQGLEWMAWINPKSGGTFYAQNFKGRVTVTRDTSINTAYLELTSLRLDDTSTYYCARGRDYADQGAADLWGQGTMVTVSS
VL: DIQLTQSPSSLSASVGDRVTITCRASQGINSVLAWYQQKPGKAPKLLLYAASKLESGVPSRFSGSGSGTDYTLTISSLQPEDFGTYYCQQYYSPVRTFGQGTKVEIKR
notes: also called X6 A
B20: 1D2 SDR mutant LP94R (antibody, IgG1, V domains shown)
VH: QVQLVQSGAEVKKPGASVKVSCEASGYTFTDKYLHWVRQAPGQGLEWMAWINPKSGGTFYAQNFKGRVTVTRDTSINTAYLELTSLRLDDTSTYYCARGRDYYDQGAADLWGQGTMVTVSS
VL: DIQLTQSPSSLSASVGDRVTITCRASQGINSVLAWYQQKPGKAPKLLLYAASKLESGVPSRFSGSGSGTDYTLTISSLQPEDFGTYYCQQYYSRVRTFGQGTKVEIKR
notes: also called X9 R
B21: 1D2 SDR mutant LV32F (antibody, IgG1, V domains shown)
VH: QVQLVQSGAEVKKPGASVKVSCEASGYTFTDKYLHWVRQAPGQGLEWMAWINPKSGGTFYAQNFKGRVTVTRDTSINTAYLELTSLRLDDTSTYYCARGRDYYDQGAADLWGQGTMVTVSS
VL: DIQLTQSPSSLSASVGDRVTITCRASQGINSFLAWYQQKPGKAPKLLLYAASKLESGVPSRFSGSGSGTDYTLTISSLQPEDFGTYYCQQYYSPVRTFGQGTKVEIKR
notes: also called X8 F

Target: T1, recombinant human GM-CSF (human, UniProt P04141 18-144)
T1 construct: also called rhGM-CSF; CSF2
T1 sequence (P04141 18-144 limits assumed): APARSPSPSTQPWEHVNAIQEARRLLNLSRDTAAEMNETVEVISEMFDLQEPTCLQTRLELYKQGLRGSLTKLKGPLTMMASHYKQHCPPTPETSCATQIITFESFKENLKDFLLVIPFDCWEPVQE
Assay: ELISA on coated rhGM-CSF, UBA relative to 1D2
Outline: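 Antibody clones carrying SDR point mutants in VH or VL, each paired with the wild-type chain, were expressed in HEK293 cells. Culture media diluted 1:12000 were bound to plates coated with rhGM-CSF at 1 μg/mL for 1 h at room temperature. Detection used HRP anti-human antibody and Amplex Red fluorescence (Ex530/Em590), with UBA = fluorescence signal/dilution factor.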

Binder | binding affinity % of 1D2 [%]
B1 | 56
B2 | 71
B3 | 81
B4 | 110
B5 | 141
B6 | 253
B7 | 134
B8 | 94
B9 | 109
B10 | 139
B11 | 85
B12 | 74
B13 | 88
B14 | 67
B15 | 138
B16 | 82
B17 | 104
B18 | 143
B19 | 88
B20 | 146
B21 | 109
